Results reported in paper PMC8850972, “Unraveling the Glucosylation of Astringency Compounds of Horse Chestnut via Integrative Sensory Evaluation, Flavonoid Metabolism, Differential Transcriptome, and Phylogenetic Analysis” (Frontiers in Plant Science, 2022).

What was measured:
[1] = substrate: O=c1c(O)c(-c2ccc(O)c(O)c2)oc2cc(O)cc(O)c12; experiment: UPLC-MS/MS glucosyltransferase kinetics; type: biochemical, Aesculus chinensis; conditions: UDP-glucose 2 mM, pH 7.0 Tris-HCl, 10 mM DTT, 37 °C
[2] = substrate: O=c1c(O)c(-c2ccc(O)cc2)oc2cc(O)cc(O)c12; experiment: UPLC-MS/MS glucosyltransferase kinetics; type: biochemical, Aesculus chinensis; conditions: UDP-glucose 2 mM, pH 7.0 Tris-HCl, 10 mM DTT, 37 °C

Protein | Km [1] | kcat [1] | Km [2]
AcUGT1 (Aesculus chinensis) (protein, cloned from mixed leaf, flower and seed cDNA into pMAL-c2x (MBP-fusion vector), expressed in Escherichia coli) MQKAELVFIPLPGVSHLISTVEIAKLLVGRDDRLSITVLIIKFPNFDSNVIAAYTRSLDRIKFIDLPNHFSDSDNSRTLFFSIIESQKPHVKEAVTKLTQSESLPAADSPRLAGFVLDMFCTCMIDVANDFGVPSYIFFTSGAAFLGLMFHAQFLHDELGKSTTDFKDSESDAELVVPSLANPVPARVLPSAMLSKEWSMHLNELSRRFRTTKGIMVNTFAELESYAVNSLSDGSKTQIPPLYPVGPILNLNGDNHVPERKAEIMEWLDDQPPSSVVFLCFGSMGSFDGDQLKEIACALEQSGHRFLWSVRQSPPKDKDKDKIVIPNDCENLTDVLPEGFLDRTVGIGKVIGWAPQVAVLGHPAVGGFVSHCGWNSTLESIWFGVPIATWPIYAEQQLNAFEMVRELGLAVEIKMDYRKDFITESVVELVTAEEIERGIRRLMESDNNDIRKKVKEMSEKSRRALMDGGSSFSSLGRFIGDVIDNIS | 1.02 ± 0.23 µM | 5.34±0.01(10^-3) S^-1 | 22.62 µM
AcUGT26 (Aesculus chinensis) (protein, cloned from mixed leaf, flower and seed cDNA into pMAL-c2x (MBP-fusion vector), expressed in Escherichia coli) MSSSRSQSHHVILFPFMSKGHTIPLLHLAQLLLRRPRVAVTVFTTPANRPFTSNFLRNTAASIIDLPFPENVPEIAPGIESTDKLPSMSLFVPFARATKLMQPDFERAVEAMPRVSFLVSDGFLWWTLESATKFGFPRFVFYGMNNYSGCVCRAVVENRLLYGRKSDDELVTVTGFPWIKVTRNDFEPTFTDPEPKGPMFDLVIDQVIATSNSYGLIVNSFYELESLFVEHKNREAKPKVWCVGPLCLADPLRVQDQLPPHQKPTWIQWLDQKLEQGRSVLYVAFGTQAEISEEQVKEISSGLEESKVNFLWVIRKKESELGDGFEKRVKERGLIVREWVDQREMLLHQSIHGFLSHCGWNSVMESICAGVPILAWPMMAEQPLNARMVVEEIKVGLRVETCNGSVRGFVKKEGLEKMVKELMEGEKGKEVRKKAKEYAEMARKAMDEDNGSSCRTLDMLMAEISNSKSQDKMEV | 2.23 ± 0.06 µM | 0.65±0.02(10^-3) S^-1 | 
